Assay results: PMC7870652

What was measured:
[1] = molecular target: CDH23 EC1-5/EC3-5 single-bond fusion protein (asymmetric Fc heterodimer with one EC1-2 binding domain) (mouse) (UniProt Q99PF4); assay: single-molecule force spectroscopy (optical tweezers); single-bond EC1-5/EC3-5 proteins, each on a DNA tether on a streptavidin bead in a dual-beam optical trap; 50 µM Ca2+, TBS buffer, room temperature; Bell-Evans fit of most-probable unbinding forces against loading rate, constants extrapolated to zero force
[2] = molecular target: truncated CDH23 EC1-5 dimer fusion protein (two EC1-5 strands) (mouse); assay: BLI; CDH23 biotinylated on its SNAPtag and immobilised on streptavidin-coated PEG-biotin aminopropylsilane sensors; 10–300 nM PCDH15 in solution; TBS-Tween + Ca^2+ buffer, 2 mM Ca^2+; traces of a drift sensor and of PCDH15 lacking EC1-2 subtracted; dissociation fitted with a single exponential; on-rates measured at 300 nM PCDH15 (effective on-rate); Octet Red384

Row | Substance | koff [1] | mean lifetime of the connection at zero force [2]
1 | PCDH15 EC1-5/EC3-5 single-bond fusion protein (asymmetric Fc heterodimer with one EC1-2 binding domain) (from UniProt Q99PJ1-1 27-1943; Q99PJ1-1 27-1943) (Fc fusion) | 1.2 s⁻¹ | –
2 | truncated PCDH15 EC1-5 dimer fusion protein (two EC1-5 strands) (Fc fusion) | – | 27.1 s
